In patent US20200010522A1 (SALUBRIS BIOTHERAPEUTICS, published 2020):

Target: T1, monkey HER3 antigen (monkey)
T1 construct: also called HER3 (monkey)
Experiment: BIAcore (SPR)

B1: anti-HER3 mAb/NRG-1 fusion protein (recombinant fusion protein, with Fc mutations) (antibody, human IgG1, kappa)
heavy: QVQLQQWGAGLLKPSETLSLTCAVYGGSFSGYYWSWIRQPPGKGLEWIGEINHSGSTNYNPSLKSRVTISVETSKNQFSLKLSSVTAADTAVYYCARDKWTWYFDLWGRGTLVTVSSASTKGPSVFPLAPSSKSTSGGTAALGCLVKDYFPEPVTVSWNSGALTSGVHTFPAVLQSSGLYSLSSVVTVPSSSLGTQTYICNVNHKPSNTKVDKRVEPKSCDKTHTCPPCPAPEFLGGPAVFLFPPKPKDTLMISRTPEVTCVVVDVSHEDPEVKFNWYVDGVEVHNAKTKPREEQYNSTYRVVSVLTVLHQDWLNGKEYKCKVSNKALPAPIEKTISKAKGQPREPQVYTLPPSREEMTKNQVSLTCLVKGFYPSDIAVEWESNGQPENNYKTTPPVLDSDGSFFLYSKLTVDKSRWQQGNVFSCSVMHEALHAHYTQKSLSLSPGKGGGGSGGGGSSHLVKCAEKEKTFCVNGGECFMVKDLSNPSRYLCKCPNEFTGDRCQNYVMASFYKAEELYQ
light: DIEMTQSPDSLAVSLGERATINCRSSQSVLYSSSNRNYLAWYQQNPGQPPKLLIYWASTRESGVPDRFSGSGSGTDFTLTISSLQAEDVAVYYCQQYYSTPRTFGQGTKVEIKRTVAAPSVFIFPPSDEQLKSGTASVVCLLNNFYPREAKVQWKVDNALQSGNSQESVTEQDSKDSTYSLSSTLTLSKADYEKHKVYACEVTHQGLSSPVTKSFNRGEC
notes: Made in CHO-derived HD-BIOP3 cells; also called the recombinant fusion protein disclosed herein; recombinant anti-HER3 mAb/NRG-1 fusion protein; copies: 2 + 2
- Kd: 0.397 nM
